The conditions of the data set: Capra hircus; pH 7; 25 °C; GdnHCl; CD; sodium cacodylate 50 mM; NaCl 50 mM; reversible: yes; whole UniProt chain shown.

B1: Alpha-lactalbumin wild type, P00712 (protein)
chain: MMSFVSLLLVGILFHATQAEQLTKCEVFQKLKDLKDYGGVSLPEWVCTAFHTSGYDTQAIVQNNDSTEYGLFQINNKIWCKDDQNPHSRNICNISCDKFLDDDLTDDIVCAKKILDKVGINYWLAHKALCSEKLDQWLCEKL
As for B1, the denaturant m value stood at 2.2 kcal/mol/M, the “denaturant midpoint (higher = more stable)” value came to 2.6 M and the unfolding free energy was determined as 5.7 kcal/mol.

(Values after FireProtDB.)
